{
  "source": "patent US20220380421",
  "system": "GST-AcrIIA16_Lmo",
  "data": [
    {"substance": "Myc-tagged SpyCas9-sgRNA", "values": [
      {"measurement": "target DNA cleavage by SpyCas9 co-immunoprecipitated with the Acr", "result": "SpyCas9 co-purified with AcrIIA16Lmo is not inhibited"}
    ]}
  ]
}
